Test results reported in the DeepSol protein solubility set.

Assay: soluble on expression in E. coli; label from the status in PepcDB or PDB records

| Sequence | soluble on expression in E. coli |
| --- | --- |
| MSRHWPLFDLRITTPRLQLQLPTEELCDQLIDTILEGVHDPDRMPFSVPWTRASREDLPFNTLSHLWQQLAGFKRDDWSLPLAVLVDGRAVGVQALSSKDFPITRQVDSGSWLGLRYQGHGYGTEMRAAVLYFAFAELEAQVATSRSFVDNPASIAVSRRNGYRDNGLDRVAREGAMAEALLFRLTRDDWQRHRTVEVRVDGFDRCRPLFGPLEPPRY | soluble |
| VTGFGLRLAEAKARRGPLCLGIDPHPELLRGWDLATTADGLAAFCDICVRAFADFAVVKPQVAFFESYGAAGFAVLERTIAELRAADVLVLADAKRGDIGATMSAYATAWVGDSPLAADAVTASPYLGFGSLRPLLEVAAAHGRGVFVLAATSNPEGAAVQNAAADGRSVAQLVVDQVGAANEAAGPGPGSIGVVVGATAPQAPDLSAFTGPVLVPGVGVQGGRPEALGGLGGAASSQLLPAVAREVLRAGPGVPELRAAGERMRDAVAYLAAV | not soluble |
| GSHMENYHAGPGISKSQLDDIADTPALYLWRKNAPVDTTKTKTLDLGTAFHCRVLELEEFSNRFIVAPEFNRRTNAGKEEEKAFLMECASTGKTVITAEEGRKIELMYQSVMALPLGQWLVESAGHAESSIYWEDPETGILCRCRPDKIIPEFHWIMDVKTTADIQRFKTAYYDYRYHVQDAFYSDGYEAQFGVQPTFVFLVASTTIECGRYPVEIFMMGEEAKLAGQQEYHRNLRTLSDCLNTDEWPAIKTLSLPRWAKEYAND | soluble |
| IKKPMSASALFVQDHRPQFLIENPKTSLEDATLQIEELWKTLSEEEKLKYEEKATKDLERYNSQMKRAIEQESQMSLKD | soluble |
| MAYIQLEPLNEGFLSRISGLLLCRWTCRHCCQKCYESSCCQSSEDEVEILGPFPAQTPPWLMASRSSDKDGDSVHTASEVPLTPRTNSPDGRRSSSDTSKSTYSLTRRISSLESRRPSSPLIDIKPIEFGVLSAKKEPIQPSVLRRTYNPDDYFRKFEPHLYSLDSNSDDVDSLTDEEILSKYQLGMLHFSTQYDLLHNHLTVRVIEARDLPPPISHDGSRQDMAHSNPYVKICLLPDQKNSKQTGVKRKTQKPVFEERYTFEIPFLEAQRRTLLLTVVDFDKFSRHCVIGKVSVPLCEVDLVKGGHWWKALIPSSQNEVELGELLLSLNYLPSAGRLNVDVIRAKQLLQTDVSQGSDPFVKIQLVHGLKLVKTKKTSFLRGTIDPFYNESFSFKVPQEELENASLVFTVFGHNMKSSNDFIGRIVIGQYSSGPSETNHWRRMLNTHRTAVEQWHSLRSRAECDRVSPASLEVT | soluble |
| MGSSHHHHHHSSGLVPRGSHMYLGRILAVGRNSNGSFVAYRVSSRSFPNRTTSIQEERVAVVPVEGHERDVFRNPYIAYNCIRIVGDTAVVSNGSHTDTIADKVALGMNLRDAIGLSLLAMDYEKDELNTPRIAAAINGSEAFIGIVTADGLMVSRVPEETPVYISTYEQTEPAATEFKAGSPEEAAEFILKGGEFAAFTHPVTAAAAFNDGEGWNLATREM | soluble |
| MGSDKIHHHHHHLMCCASRSVPRWPDNIFTEFLSPKRALGPEPCRPRMTPFWRAGQLCPSVQDRRVFSCEPPCAVFPRWRTMRRAYLLKQEVLPMKISVIGASRGIGRKVVEEALERGHSVTGMARSATSLGIDHAEFTAIDGDATNATDVTQAIDGADAVILTLGVPKDARVLKSTTLFSDATRTLITAMEEAGIKRLLTVTGFGAGDSKEKLSTPERLTQKAFLGRAYADKDLQEKLIRDSDLDWTIARPGILSDNRKSNAYKVLVEKETWRNGLINRSDVADFLVTAAEDESHIHKTPALQR | not soluble |
| MSRQDPRTIEFLESVGKGEIPPSLVQQYPGKEIDFKVNRHHEEYVAPKMKPFGGSGVRLGNVVPTVLGQSSSSATTAGTSSATTDHNPDHTAENEAKQLEDAKKELSTNMNEPTTNIQIRLPNNQRLVGIFNHSHTLEAVRTFICTARPDMIYAPFQMMAAYPPKPFEDESQTLKDANVLNSVVAVKILPTTN | not soluble |
| MARHKCQDCGKTFDLKRYLTKHELRMHKNVVKSKNDRSASDPLKCSMCDKVFPRLSHLQRHQMTHLNVRNYSCTFCEEKFVQKSHLTRHVSRKHSNAPGVEVDWTACDKCGQLFKTTYEMRIHRQTYHELHKCKQCQEVIEAGSDGLRKHHMQCRKYSNVCDECGASFSRPADLVSHETSCLKKFAFVCKPCDSYFRQRVQLDRHIKKAHFHPTKCSKCEQISDTPVQNSRHSLECVKVIICGYCSLKNPDKNHVATVHWHRLKRAVSKSVTIRHKLKDAPIADKDVPSSSGQSSLEEEILDDSEDDLEDTGEGLSNREQFKNRDIKRENNLEEVKSSTDNRDEEDSLFNFPDTSTSQLDFCSTAFTEDDSFPGDYVTLSICPKNTDLSFDLRDRLPPELSELFPELEATSIVLLNKSIRCRMTVRVPVCIPKSSTQEAEMRKWLDMTVVLKDD | not soluble |
| GSHMGHIIDISKWNGDINWSIAKQHIDFIIARVQDGSNYVDPLYKGYVQAMKQHGIPFGNYAFCRFVSIADAKKEAQDFWNRGDKSATVWVADVEVKTMNDMRAGTQAFIDELYRLGAKKVGLYVGHHMYTPFGMANVKSDFVWIPRYGGNKPAYPCDIWQYTETGNVPGIGKCDLNSLIGNKSLSWFTESA | soluble |
| MKDWQLPSHSGPYELRIEVQPKSHHRAHYETEGSRGAVKASAGGHPIVQLHGYLENEPLMLQLFIGTADDRLLRPHAFYQVHRITGKTVSTTSHEAILSNTKVLEIPLLPENSMRAVIDCAGILKLRNSDIELRKGETDIGRKNTRVRLVFRVHVPQPSGRTLSLQVASNPIECSQRS | soluble |
| MATRSCVSRGSAGSAAAGPVEAAIRAKLEQALSPEVLELRNESGGHAVPAGSETHFRVAVVSSRFEGMSPLQRHRLVHEALSEELAGPVHALAIQAKTPAQWRENPQLDISPPCLG | soluble |
| MSLAQFSVNAQRFDPYKNFKFRIKWDGRYVAGVSKVSALKRTTEVVEHREGGDASNVRKSPGRTKYEPITMERGVTHDTEFEKWANKVWNYGSGMGAEVSLKDFRKDIIIEVYNEAGQLAIAYKVYRCWVSEYQALPELDANANAVAIQSMKLENEGWERDYDIGEPDEPTFTEPQEGHHHHHH | soluble |
| MDRLESVLKEERVFYPSEEFRKQAHIKSEEEYQRLYEESVRDPEGFWGRVASELHWFEPWRKVLEGDLPHPKWFVGGKTNLSYNALDRHVKTWRRNKAAIVWEGEPGEERVLTYHDLWREVQRFANVLKRLGVKKGDRVTIYLPMIPEAAIAMLACTRIGAVHSVVFGGFSAGALADRIKDAEAKVLITADGGFRRGGIVPLKQNADEALKDATSVEHVVVVRRTGEEVPWTPGRDHWWHELMEAAPDRCDPEPMEAEEPLFILYTSGSTGKPKGVLHTTGGYMTYVYYTTKLVFDLKDEDVYWCTADVGWITGHSYVVYGPLLNGATTVMYEGAPNWPEPDRFWRIVDKYGVTVFYTAPTAIRSFMKWGEGWPGKHRLDSLRLLGTVGEPINPEAWLWYYHVIGKGRCPIVDTWWQTETGGIMITTLPGAHAMKPGHAGKPFFGVVPEILDGEHRPVENPDEGGHLCITRPWPSMLRTVWGDPERFLQQYFSQHPGVYFSGDGAKRDKDGYYMILGRVDDVLNVAGHRLGTMEIESALVAHPAVAEAAVVGRPDPVKGEAIVAFVTLKEGHTPSDALKEELRAHVAKVIGPIARPDEIRFTDALPKTRSGKIMRRLLRQIAAGEKEIKGDTSTLEDRSVVERLKEGA | soluble |
| MGSDKIHHHHHHMALPVLICDDSAMARKQMARTLPKDWDVDITFATNGAEGLEAIRAGKGEVVFLDLNMPVMDGYEVLQTIQQQDLPALVIVVSGDIQIKAHERVKALGALDFIQKPVSAEAIAGILQEYGILVPGEGEGDEAEDNPLLKVDMRDACQEIANVAMGRAADLLAKLLDVFVVLPIPNVNVLEVSELTMALKATETSAKVTALCQGFIGAGVAGEALLLFHDSSFQDMAKLMKLDGPGDEATEVEVLIDTGNVLIGAFLNGIAEQLDMHFSQAHPVVLGRHCTVNDLIHDNAEKWHRTLAMEINYRIEDHNIECDLLLLFTEDSLPTLNYKLGYMLDTD | not soluble |
| MEQHVIEFLTTTLDDLKAQDILAIDVRGKSSITDTMIIATGTSVRHVASTAERLITEAKKAGVQVLGEEGRAVADWVVVDFGQAIVHLLQADARELYQLEKLWRLEHHHHHH | not soluble |
| MSDALDDENVLCFRYKSYYIKDDGSRIDTLNEERIKHIVDFTLDKYLDATQNTPKFDNFENPVKEGFNSIFACESKEAAIEYYKEFKKQIEQKKLPIKIASIIAQTKVVMNKKLV | soluble |
| MEQSQRTQLSYEGAKSVIRFMSIEKRIQIHCRIPYYRKTNALFPYAHRQMTLSSDGISIGSNHYTFDIRRSNFGRRFRDDFGGESDEEPEAAPLEPALAELNLRDRARREREILREEHYQREDDERLRAQQNQVHIRYGETQYEVRRNFGQRRNPEEAFIKLFDAYISTGTTIEKLLFTGFPKFLKKRDPSKLQFKVRELKLSSLRDRTLEKIVPFIGASKLKKMNLDVGPDTISYLDLPMIKNCEVLNLNISMWNERNRQRNENNNFSKLSNLRNMKLNLILERFTIDDLQRLALNWIFTRRPIGTYFKTGVNQQYDHILDIFDRLIEENRASRCRITKLGTVYFANGVKLSIDGKSELVVYGGPKWKTRAGIDGQWTIHMEVMAVGDTTPSA | not soluble |
| MGSDKIHHHHHHMNFLDGHLFPENQQPLIITAAPYAPSWMPSDFPEDIAVTMEDQIQKAVDCYNAGATVLHLHVRELDGKGSKRLSKFNELIAGVRARVPEMIIQVGGSISFAPESEGAAAKWLSDDTRHMLAELEPTPDQVTVTVNTSQMNILEQFDHRDIVGSSMEDPEVFNAYKEMTVPAQPGWVEEHVRRLTAAGIQSAFQCYNLNSFESVERLMRRGIYKGPLVLNWVAIGGGMDSPSVYSLANFVRAVPDGAVLTVESSVCNVLPVNTMGIAMGLHVRCGTEDTLWNQTRTKKMGTVAQIEQLVRISEEMSRPIATARQAREMCRIGEFYDTVDETLQANGFAPNRNGGQQGFLRKVA | not soluble |
| SESQSEEIDCNDKDLFKAVDAALKKYNSQNQSNNQFVLYRITEATKTVGSDTFYSFKYEIKEGDCPVQSGKTWQDCEYKDAAKAATGECTATVGKRSSTKFSVATQTCQITPAEGPVVTAQYDCLGCVHPISTQSPDLEPILRHG | soluble |
| MGSDKIHHHHHHMEEIKEQNNRLFLLLSIMIMEFSNAKTESDILQGLLNLVRKVVDIKEVVLVDENKRKIWGRDIDIKRFEEFIDWSIRQSNPVFVEDELGYVGIVPVVKQDRMFGSLIVLLNHQPSMEETEIFKVLSFLSAVVLENIKLYRELEETYNYVNVILNGLPEGIFVYSNGEIKFQNEKFKEENFPDEVLRKAISLSEEAISLRTQRVGEVISGEEFFSITSIPLILGSEVQALTIVENVTESKELERLKRIDRMKTEFIANISHELRTPLTAIKAYAETIYNSLGELDLSTLKEFLEVIIDQSNHLENLLNELLDFSRLERKSLQINREKVDLCDLVESAVNAIKEFASSHNVNVLFESNVPCPVEAYIDPTRIRQVLLNLLNNGVKYSKKDAPDKYVKVILDEKDGGVLIIVEDNGIGIPDHAKDRIFEQFYRVDSSLTYEVPGTGLGLAITKEIVELHGGRIWVESEVGKGSRFFVWIPKDRAGEDNRQDN | not soluble |
| MGSDKIHHHHHHMSDSAKQPELWLMGLGCEEERSTAVLDYLRHAGYSVVCRGRDDFGDTKPLGVVLDVSPFSHDGWGILLDIKNNPATRDVPILPVYLSQEGKIGGVFPAAGFFTLPIDTDYMMKKLTVLGLTDEADTWDLQVMVISKKGEESVAKAITSLGFEVVNAYTGKEAVALATTGRAYMIFCSVTLPDMHSFELLERFRLYPQVRNVPFFVLVKDAMKEGERLALSRQMDHLVRKKELSRDEFLAYLRRRG | not soluble |
| DVQPETCRPSAASGNYFPQYPEYAIETARLRTFEAWPRNLKQKPHQLAEAGFFYTGVGDRVRCFSCGGGLMDWNDNDEPWEQHALWLSQCRFVKLMKGQLYIDTVAAKPVLAEEKEESTSIGGD | soluble |
